Positions count from the first letter of the chain named. Numbers in names are those of the source.
B1: Sf6 terminase small subunit gp1 R48A mutant (natural protein)
chain: MATEPKAGRPSDYMPEVADDICSLLSSGESLLKVCKRPGMPDKSTVFAWLAKHEDFRDKYAKATEARADSIFEEIFEIADNAIPDAAEVAKARLRVDTRKWALARMNPRKYGDKVTNELVGKDGGAIQIETSPMSTLFGK
B2: Sf6 terminase small subunit gp1 D19R mutant (natural protein, Shigella phage Sf6, UniProt Q716H4 1-140, looked up)
chain: B1 chain with D19R, A48R
B3: Sf6 terminase small subunit gp1 K59E mutant (natural protein)
chain: B1 chain with A48R, K59E
B4: Sf6 terminase small subunit gp1 E73A mutant (natural protein, Shigella phage Sf6)
chain: B1 chain with A48R, E73A

Tests used:
crystal structure = target: the molecule itself; assay: crystal structure
SEC = target: the molecule itself; assay: SEC

| Protein | binding result (crystal structure) | stoichiometry N (SEC) |
| --- | --- | --- |
| B1 | binds | – |
| B2 | binds | – |
| B3 | binds | – |
| B4 | – | 8 |

From article PMC3572731 (Journal of molecular biology, 2012)
